assay: yeast display, Sf9 membrane polyspecificity reagent, FACS + sequencing; frameworks hold sequencing errors
In short: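 Galactose-induced (36–48 hours) yeast carrying a synthetic nanobody display library were exposed to 10% biotinylated, detergent-solubilized Sf9 membrane reagent at 4 °C for 1 hour. FACS followed streptavidin microbead enrichment, using low and high (top ~1%) gates for expression (anti-HA) and reagent binding (streptavidin). Colony PCR, MiSeq 2 × 250 sequencing and CDR-length filtering followed. Labels for polyreactivity reflect the gate of origin.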

| Sequence | polyreactivity (PSR sort gate) |
| --- | --- |
| QVQLVESGGGLVQAGGSLRLSCAASGNTFYGYAMGWYRQAPGKERELVAAIRGSDGITFYADSVKGRFTISRDNAKNTVYLQMNSLKPEDTAVYYCAKDTYRSPRHDYGYWGQGTQVTVSS | low polyreactivity |
| QVQLVESGGGLVQAGGSLRLSCAASGNTFYINAMGWYRQAPGKERELVAAINYSGDSTYADSVKGRFTISRDNAKNTVYLQMNSLKPEDSAVYYCAADWYFSVYIDYDTEYDYWGQGTQVTVSS | low polyreactivity |
| QVQLVESGGGLVQAGGSLRLSCAASGNTFYINAMGWYRQAPGKERELVAAINYSGESTYADSVKGRFTISRDNAKNTVYFQMNSLKPEDTAVYYCAADWYFSVYIDYDTEYDYWGQGTQVTVSS | low polyreactivity |
| QVQLVESGGGLVQAGGSLRLSCAASGNTFYPYAMGWYRQAPGKERELVATIRGSDDSTYYADSVKGRFTISRDNAKNTVYLQMNSLKPEDTAVYDCAADDVVSTFLRGYVRYDYWGQGTQVTVSS | high polyreactivity |
| QVQLVESGGGLVQAGGSLRLSCAASGNTFYRYAMGWNRQAPGKERELVAAISNGGSTNYADSVKGRFTISRDNAKNTVYLQMNSLKPEDSAVYYWAAANTRRYTHGFWGHGTQVTVSS | high polyreactivity |
| QVQLVESGGGLVQAGGSLRLSCAASGNTFYVNVMGWYRPAPGKEREFVAAISTRGVSTSYADSVKGRFTISRDNAKNTVYFQMNSLKPEDTAVYYGAARYYYRDWVGIISTYYYWGQGTQVTVSS | high polyreactivity |
| QVQLVESGGGLVQAGGSLRLSCAASGNTFYWNAMGWYRQAAGKERELVAAISTTGVSTYYADSVKGRFTISRDNAKNTVYLQMNSLKPEDTAVYYCATVSYYDRYDYDYWGQGTQVTVSS | low polyreactivity |
| QVQLVESGGGLVQAGGSLRLSCAASGNTINKYAMGWYRQAPGKERELVAAITRSGGSTYYADSVKGRFTISRDKAKNTVYLQMNSLKPEDTAVYYCAAAYWILYYPIDQAFDYWGQGTQVTVSS | low polyreactivity |
| QVQLVESGGGLVQAGGSLRLSCAASGNTLLSYAMGWYRQAPGKEWELVAAISIDGSTIYADSVKGRFTISRDNAKNTVYLQMNSLKPEDTAVYYCNADRTPFAEMDYWGQGTQVTVSS | low polyreactivity |
| QVQLVESGGGLVQAGGSLRLSCAASGNTLNYYTMGWYRQAPGKERELVAAISSSGGSTYYADSVKGRFTISRDNAKNTVYLQMNSLKPEDTAVYYCAVLFYNNFGYWGQGTQVTVSS | low polyreactivity |
| QVQLVESGGGLVQAGGSLRLSCAASGNTYSYNAMGWYRQAPGKEREFVASISRRGGRTNYADSVKGRFTISRDNAKYTVYLQMNSLKPEDTAVYYCAATTVPLGDYWGQGTQVTVST | high polyreactivity |
| QVQLVESGGGLVQAGGSLRLSCAASGNTYTSYAMGWYRQAPGKDRELVAAISASGSSTYYADSVKGRFTISRDNAKNTVYLQMNSLKPEDTAVFYCARQWYWRPGYYMGQGYEYWGQGTQVTVSS | low polyreactivity |
| QVQLVESGGGLVQAGGSLRLSCAASGPIFATNAMGWYRQAPGKERELVASISSGGGSTYYADSVKGRFTISRDNAKNTVYLQMNSLKPEDTAVYYCAADYYTGYVWEDYYWGQGTQVTVSS | low polyreactivity |
| QVQLVESGGGLVQAGGSLRLSCAASGPIFPAYAMGWYRQAPGKERELVASIRRGGITYADSVKGRFTISRDNAKNTVYLQMNSLKPEDTAVYYCNADYRGWGYHMDYWGQGTQVTVSS | low polyreactivity |
| QVQLVESGGGLVQAGGSLRLSCAASGPIIGQYAMVWYIQAPGKERELVAAITYSGGRTYYADSVKGRFTISRDNAKNTVYLQMNSLKPEDTAVYYCAARGRASFERRGGYYYWGQVTQVTVSS | high polyreactivity |
| QVQLVESGGGLVQAGGSLRLSCAASGPTFDYNAMGCYRPAPGKERELVAAIRFGGGSTYYADSVKGRFTISRDNAKNTVYFQINSLKPEDTAVYYCNASPLWIGWVIVPVGSSHYDYWGQGTQVTVSS | low polyreactivity |
| QVQLVESGGGLVQAGGSLRLSCAASGPTFKRYAMGWYRQAPGKERELVAAITGTGAITYYADSVKGRFTISRDNAKNTVYLQMNSLKPEDTAVYYCAALGYYRYKYQASSNGFDYWGQGTQVTVSS | high polyreactivity |
| QVQLVESGGGLVQAGGSLRLSCAASGPTFLVNAMGWYRQAPGKERELVATINWNAGSTYYADSVKGRFTISRDYAKNTVYLQMNSLKPEDTAVYYCAAPYEQAPTTDVSSLIPLHDYWGQGTQVTVSS | low polyreactivity |
| QVQLVESGGGLVQAGGSLRLSCAASGPTFRRYGMGWYRQAPGKERELVDAITTRGGSTYYADSVKGRFTISRDNAKNTVYLQMNSLKPEDTAVYYCAAPRKYFYSSATGNYWGQGTQVTVSS | high polyreactivity |
| QVQLVESGGGLVQAGGSLRLSCAASGPTFYYYAMGWYRQEPGKERELVAAIRVRGGSTYYADSVKGRFTISRDNAKNTVYLQMNSLKPEDTAVYYCAADHTFYGVHKYDYWGQGTQVTVSS | low polyreactivity |
| QVQLVESGGGLVQAGGSLRLSCAASGQIFHSYAMGWSRQAPGKERELVAAISRGGGSTYYADSVKGRFTISRDNAKNTVYLQMNSLKPEDTAVYYCARENLTRYDYWGQGTQVTVSS | high polyreactivity |
| QVQLVESGGGLVQAGGSLRLSCAASGQIFYRYAMGWDRQAPGKERELVAAISSGGSTYYADSVKGRFTISRDNAKNTVYLQMNSLKPEDTAVYYCNTGYWYVSLGSYDYYGEYDYWGQGTQVTVSS | high polyreactivity |
| QVQLVESGGGLVQAGGSLRLSCAASGRAFKRYAMGWYRQAPGKERELVAAITRSGGSTYYADSVTGRFTISRDKAKNTVYLQMNSLKPEDTAVYYCATRSYNNELEYWGQGTQVTVSS | high polyreactivity |
| QVQLVESGGGLVQAGGSLRLSCAASGRICTRNAMGWYRQAPGKERELVAAISWRGGSTYYADSVKGRFTISRDNAKNTVYLQMNSLKPEDTAVYYCNAYFLSQYQSAYRDDYWGQGTQVTVSS | high polyreactivity |
| QVQLVESGGGLVQAGGSLRLSCAASGRIFAANTMGWYRQAPGKEREFVAVIRGRGGSTYYADSVKGRFTISRDNAKNTVYLQMNSLKPEDTAVYYCAAYYKPYRERLYGYWGQGTQVTVSS | high polyreactivity |
| QVQLVESGGGLVQAGGSLRLSCAASGRIFAAYAMGWYRQAPGKERELVAAITRRGSTYYADSVKGRFTISRDNDKKTVYFQMNSLKPEDTAVYYCNKVPLFQYSTAWYDYWGQGTQVTVSS | high polyreactivity |
| QVQLVESGGGLVQAGGSLRLSCAASGRIFAAYAMGWYRQAPGKERELVAAITWDGDSTYYADSVKGRFTISRDNAKNTVYLQMNSLKPEDTAVYYCAAYWSTWYDWGQGTQVTVSS | high polyreactivity |
| QVQLVESGGGLVQAGGSLRLSCAASGRIFAAYAMGWYRQAPGKERELVAAITWRGGSTYYADSVKGRFTISRDNAKNTVYLQMNSLKPEDTAVYYCNARVYYYPGYDYWGQGTQVTVSS | low polyreactivity |
| QVQLVESGGGLVQAGGSLRLSCAASGRIFADYAMGWYRQAPGKETELVAAISSTSSTNYADSVKGRFTISRDNAKNTVYLQMNSLKPEDTAVYYCAKRIGHLPFRPYDYWGQGTQVTVSS | low polyreactivity |
| QVQLVESGGGLVQAGGSLRLSCAASGRIFAEYAMGWYIQATGKERELVASISRRGGSTYYADSVKGRFTISRDNAKNTVYLQMNSLKPEDTAVYYCAAVWAYYHTRYSTWGYDYWGQGTQVTVSS | high polyreactivity |

Reference: the nanobody polyreactivity screen of Harvey et al. (2022)
